According to patent US10155796B2, “Compositions and methods for inhibiting tumor cells by inhibiting the transcription factor ATF5” (The Trustees of Columbia University in the City of New York, priority 2013, dated 2018):

Tests used:
[1] = system: primary GS9-6 human glioblastoma stem cells; assay: Annexin V/PI staining and flow cytometry of spheres; assay type: cell-based; conditions: 6 days of treatment
Excerpt: FIG. 22 depicts synthetic PEN-d/n-ATF5 promoting apoptotic death of primary GS9-6 human glioblastoma stem cells growing in culture as spheres. 6 days of treatment and data determined by Annexin V/PI staining and flow cytometry
FIG. 23 depicts recombinant PEN-d/n-ATF5 promoting apoptotic death of primary GS9-6 human glioblastoma stem cells growing in culture as spheres. 5 days of treatment and data determined by Annexin V/PI staining and flow cytometry.
Data reflects 6 days of treatment. Data determined by Annexin V/PI staining and flow cytometry.
5 days treatment. Data determined by Annexin V/PI staining and flow cytometry.

[2] = system: U87 human glioblastoma cells; assay: Cell viability, MTA assay; assay type: cell-based
Procedure: (§1) FIG. 19 depicts recombinant TAT-d/n-ATF5 (3 μM) treatment for 3-5 days decreasing viability of two human and one mouse GMB cell line as established by MTA assay.
FIG. 20 depicts synthetic PEN-d/n-ATF5 treatment decreasing cell viability of cultured U87 human glioblastoma cells as established by MTA assay. 5 days treatment at indicated concentrations (μM).
5 days treatment at indicated concentrations (μM), as detected using an MTA assay.

U373 = assay: Cell viability, MTA assay; assay type: cell-based, human; conditions: 3 μM, 3-5 days
Procedure: as §1

DDIT3 (CHOP) = assay: Western immunoblotting for CHOP in various tumor cell lines; assay type: cell-based; conditions: times and doses per FIG. 15
Procedure: Cells were treated with TAT-d/n-ATF5 for the indicated times at the indicated doses (in μM) and then harvested and analyzed by Western immunoblotting for expression of CHOP and other non-responsive proteins.
TAT-d/n-ATF5 (TAT-ZIP) peptide induces expression of the pro-death gene DDIT3 (CHOP) in various tumor cell lines. Cells were treated with TAT-d/n-ATF5 for the times and doses (in μM) indicated in FIG. 15 and then harvested and analyzed by Western immunoblotting for expression of CHOP and other non-responsive proteins.

U87 glioblastoma cells = assay: Combination with temozolomide: apoptotic nuclei in U87 cells; assay type: cell-based, human; conditions: one day, sub-lethal TZIP 1 μM and TMZ 50 μM, separately or in combination
Procedure: (§2) Cells were cultured for one day with sub-lethal levels of TAT-d/n-ATF5 (TZIP 1 μM) and TMZ (50 μM) either separately or in combination, and then assessed for proportion of cells with apoptotic nuclei. TMZ is presently the first-line treatment for human GBM. The data reveal that TAT-d/n-ATF5 not only functions in presence of TMZ, but that the two drugs act in synergy to kill GBM cells.
as §2, with “As outlined in FIG. 18, cells” for “Cells”

[3] = system: H2452 (human mesothelioma); assay: Cell line susceptibility testing; assay type: cell-based; conditions: 1-3 μM range
Procedure: (§3) For example, but not by way of limitation, cell lines shown through testing to be susceptible to TAT-d/n-ATF5 (1-3 μM range) include: U87 (human glioblastoma); U373 (human glioblastoma); LN229 (human glioblastoma); C6 (rat glioblastoma); Mel501 (human melanoma); H2452 (human mesothelioma); MDA-MB-468 (human breast cancer). In addition, a non-limiting list of cell lines shown through testing to be susceptible to PEN-d/n-ATF5 (3 μM) include: Panc-1 (human pancreatic cancer); SH-SYSY (human neuroblastoma cells); and HCT-116 (colon-carcinoma cancer). The method of the present invention can be performed in vitro as well as in vivo in a subject. As used herein, “apoptosis” refers to cell death which is wholly or partially genetically controlled.

U87 (human glioblastoma) = assay: Cell line susceptibility testing; assay type: cell-based; conditions: 1-3 μM range
Procedure: as §3

[4] = system: MDA-MB-468 (human breast cancer); assay: Cell line susceptibility testing; assay type: cell-based; conditions: 1-3 μM range
Procedure: as §3

C6 (rat glioblastoma) = assay: Cell line susceptibility testing; assay type: cell-based; conditions: 1-3 μM range
Procedure: as §3

Mel501 (human melanoma) = assay: Cell line susceptibility testing; assay type: cell-based; conditions: 1-3 μM range
Procedure: as §3

[5] = system: U373 (human glioblastoma); assay: Cell line susceptibility testing; assay type: cell-based; conditions: 1-3 μM range
Procedure: as §3

[6] = system: LN229 (human glioblastoma); assay: Cell line susceptibility testing; assay type: cell-based; conditions: 1-3 μM range
Procedure: as §3

[7] = system: U87 human glioblastoma cells; assay type: cell-based
Excerpt: (§4) FIG. 21 depicts recombinant TAT-d/n-ATF5 treatment promoting death of cultured U87 human glioblastoma cells as indicated by Annexin V/PI staining and flow cytometry. Proportions of viable cells are shown in lower left quadrant (88% control vs 58% treated). Dying cell proportions are in the lower right and upper right quadrants (9% in controls vs 36% in treated).
as §4, with “As outlined in FIG.” for “FIG.”, “21, Recombinant” for “21 depicts recombinant”, “promotes” for “treatment promoting”

endogenous ATF5 = assay: Western immunoblotting for endogenous ATF5 in U373 glioblastoma cells; assay type: cell-based, human; conditions: 17 hrs
Procedure: (§5) TAT-linked dominant-negative ATF5 peptide at the indicated concentrations (in μM) was added to medium of U373 glioblastoma cells for 17 hrs day and the cells were then harvested and analyzed by Western immunoblotting for levels of endogenous ATF5. […] As previous studies have shown that tumor cells require endogenous ATF5 to survive, the mechanism of action by which the cell-penetrating TAT-ZIP peptide kills may be by causing loss of the endogenous ATF5 protein. Note also the smear above the endogenous ATF5 when the TAT-ZIP peptide is present.
as §5, with “ATF5 peptide was added” for “ATF5 peptide at the indicated concentrations (in μM) was added”, “glioblastoma cells at the concentrations (in μM) indicated in FIG. 14 for 17” for “glioblastoma cells for 17”, “to survive, but without being bound by theory, the mechanism” for “to survive, the mechanism”

U87 cells = assay: Apoptotic nuclei in U87 cells after CHOP silencing with siRNA; assay type: cell-based, human; conditions: siCHOP versus control siRNA, then peptide for 2 days
Procedure: Cells were treated with siCHOP to silence CHOP expression (top Western immunoblot) or with control siRNA. They were then exposed to TAT-d/n-ATF5 for 2 days and assessed for proportion of cells with apoptotic nuclei. The data support the idea that part of the mechanism by which TAT-d/n-ATF5 kills tumor cells is by increasing their expression of CHOP which in turn mediates death.
Cells were treated with siCHOP to silence CHOP expression (top Western immunoblot of FIG. 16) or with control siRNA. They were then exposed to TAT-d/n-ATF5 for 2 days and assessed for proportion of cells with apoptotic nuclei.

MSG Cells = assay: Cell viability, MTA assay; assay type: cell-based, mouse; conditions: 3 μM, 3-5 days
Procedure: as §1

MEL501 melanoma cells = assay: Apoptotic nuclei (Hoescht dye) in melanoma cells; assay type: cell-based, human; conditions: four days, concentrations in μM per FIG. 13
Procedure: TAT-linked dominant-negative ATF5 peptide at the indicated concentrations (in μM) was added to medium of MEL501 melanoma cells. Four days later the cells were stained with Hoescht dye and the cells were stained for proportion with apoptotic nuclei.
TAT-linked dominant-negative ATF5 peptide was added to medium of MEL501 melanoma cells at the concentrations (in μM) indicated in FIG. 13. Four days later the cells were stained with Hoescht dye and the cells were stained for proportion with apoptotic nuclei.

BCL2 survival protein = assay: Western immunoblotting for BCL2 in U87 cells; assay type: cell-based, human; conditions: 30 hrs
Procedure: (§6) Cultured U87 human glioblastoma cells were treated with the indicated concentrations of TATZIP (TAT-d/n-ATF5 peptide) (in μM) for 30 hrs. The cells were then harvested and assessed by Western immunoblotting for expression of the survival protein BCL2. These findings indicate that in addition to elevating pro-death CHOP, TAT-d/n-ATF5 may also kill tumor cells by reducing their levels of the BCL2 survival protein.
as §6, with “As outlined in FIG. 17, cultured” for “Cultured”

Chain of endogenous ATF5 (Q9Y2D1 208-282 limits assumed): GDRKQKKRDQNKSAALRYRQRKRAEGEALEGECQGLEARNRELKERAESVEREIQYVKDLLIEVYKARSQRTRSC

B1: synthetic PEN-d/n-ATF5: chemically synthesized Penetratin-linked dominant-negative ATF5 peptide; probably SEQ ID NO: 19 (peptide)
chain: RQIKIWFQNRRMKWKKLEQRAEELARENEELLEKEAEELEQENAELEGECQGLEARNRELKERAESV
In the case of B1, the apoptotic death [1] is reported as “promotes apoptotic death” and the cell viability ([2]; 5 days treatment, concentrations (μM) per FIG. 20) is reported as “decreases cell viability”.

B2: TAT-d/n-ATF5: TAT-linked dominant-negative ATF5 peptide, recombinant; probably SEQ ID NO: 17 (protein)
chain: MGSSHHHHHHSSGLVPRGSHMLEYGRKKRRQRRRYPYDVPDYAMASMTGGQQMGRDPDLEQRAEELARENEELLEKEAEELEQENAELEGECQGLEARNRELRERAESV
B2 was tested, and the cell viability (U373) was “decreases viability”, the “expression of CHOP” value (DDIT3 (CHOP)) was “elevation of CHOP in all cases” and the “cell killing in combination with temozolomide (proportion of cells with apoptotic nuclei)” value (U87 glioblastoma cells) was “synergizes with temozolomide (TMZ) to kill”. The “susceptibility of cell line” value [3] was “susceptible”, the “susceptibility of cell line” value (U87 (human glioblastoma)) was “susceptible” and the “susceptibility of cell line” value [4] was “susceptible”. The “susceptibility of cell line” value (C6 (rat glioblastoma)) was “susceptible”, the “susceptibility of cell line” value (Mel501 (human melanoma)) was “susceptible” and the “susceptibility of cell line” value [5] was “susceptible”. The “susceptibility of cell line” value [6] was “susceptible”, the “proportion of viable cells (lower left quadrant)” value [7] was 58% and the “dying cell proportion (lower right and upper right quadrants)” value ([7]; treated, controls 9%) was 36%. For the same molecule, the cell viability ([2]; 3 μM, 3-5 days) was “decreases viability”, the “levels of endogenous ATF5” value (endogenous ATF5) was “greatly reduces expression of endogenous ATF5” and the “effect of silencing of CHOP with siRNA on death caused by the peptide” value (U87 cells) was “partially protects”. The cell viability (MSG Cells) was “decreases viability”, the “proportion of cells with apoptotic nuclei” value (MEL501 melanoma cells) was “promoted apoptosis in a dose-dependent fashion” and the “expression of the survival protein BCL2” value (BCL2 survival protein) was “down-regulates BCL2 survival protein”.
